For 1 substance, fold change of the AMBRA1/DDB1 interaction against AMBRA1^WT results are on record in PMC11625884.

The target of this assay is AMBRA1^WD40 (UniProt Q9C0C7). The assay is described as follows: co-IP; AMBRA1 antibody (Proteintech) coupled to Dynabeads, mixed with lysate of SHSY5Y cells overexpressing AMBRA1 constructs; washed; western blot for the protein of interest.
UniProt Q9C0C7, sequence (Q9C0C7 whole entry): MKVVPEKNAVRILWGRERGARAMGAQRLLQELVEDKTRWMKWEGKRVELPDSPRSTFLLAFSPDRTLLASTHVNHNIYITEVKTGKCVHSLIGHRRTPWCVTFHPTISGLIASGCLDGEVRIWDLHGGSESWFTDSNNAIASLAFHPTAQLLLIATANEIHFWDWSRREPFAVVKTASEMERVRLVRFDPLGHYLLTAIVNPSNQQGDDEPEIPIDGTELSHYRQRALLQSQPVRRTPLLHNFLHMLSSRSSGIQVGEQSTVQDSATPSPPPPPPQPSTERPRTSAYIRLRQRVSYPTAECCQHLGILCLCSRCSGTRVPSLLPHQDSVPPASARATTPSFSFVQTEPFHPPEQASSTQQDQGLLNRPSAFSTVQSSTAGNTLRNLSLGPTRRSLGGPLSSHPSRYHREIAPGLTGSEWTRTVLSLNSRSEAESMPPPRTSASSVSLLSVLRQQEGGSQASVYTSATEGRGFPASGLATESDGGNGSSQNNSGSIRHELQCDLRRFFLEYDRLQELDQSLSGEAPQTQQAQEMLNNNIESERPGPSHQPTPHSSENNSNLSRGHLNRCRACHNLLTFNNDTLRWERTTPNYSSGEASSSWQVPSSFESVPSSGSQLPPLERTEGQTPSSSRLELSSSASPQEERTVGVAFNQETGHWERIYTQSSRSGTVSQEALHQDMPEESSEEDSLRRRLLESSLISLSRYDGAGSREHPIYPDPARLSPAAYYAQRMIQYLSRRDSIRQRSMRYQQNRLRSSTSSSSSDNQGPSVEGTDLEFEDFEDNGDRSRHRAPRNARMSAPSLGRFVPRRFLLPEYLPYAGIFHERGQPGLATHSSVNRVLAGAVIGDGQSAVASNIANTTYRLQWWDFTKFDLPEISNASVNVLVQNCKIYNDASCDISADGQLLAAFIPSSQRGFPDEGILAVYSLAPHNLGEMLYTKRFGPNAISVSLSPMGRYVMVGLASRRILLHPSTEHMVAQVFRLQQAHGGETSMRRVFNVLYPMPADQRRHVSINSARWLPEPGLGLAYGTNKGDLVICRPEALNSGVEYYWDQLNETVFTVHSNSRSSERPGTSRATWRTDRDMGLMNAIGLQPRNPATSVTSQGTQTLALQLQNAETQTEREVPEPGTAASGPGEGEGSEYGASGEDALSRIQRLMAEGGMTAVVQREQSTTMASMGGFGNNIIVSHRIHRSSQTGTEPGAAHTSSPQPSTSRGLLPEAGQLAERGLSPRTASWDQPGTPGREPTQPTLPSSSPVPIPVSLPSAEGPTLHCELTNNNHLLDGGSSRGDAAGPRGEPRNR

On to “DDB1 (from UniProt Q16531 1-1140) (natural protein)”, for which the fold change of the AMBRA1/DDB1 interaction against AMBRA1^WT was 0.5 fold.
